{
  "source": "paper PMC7049810",
  "about": "(2020)",
  "binders": {"B1": {"name": "MepS (enzyme)", "chain": "CSANNTAKNMHPETRAVGSETSSLQASQDEFENLVRNVDVKSRIMDQYADWKGVRYRLGGSTKKGIDCSGFVQRTFREQFGLELPRSTYEQQEMGKSVSRSNLRTGDLVLFRAGSTGRHVGIYIGNNQFVHASTSSGVIISSMNEPYWKKRYNEARRVLSRS", "modifications": "where used as fl-MepS in MST: NT647 RED-NHS dye on amines"}},
  "test_in_all_cases": "MST",
  "key": {"MepS": {"molecular_target": "B1"}, "PBP4, native, purified": {"molecular_target": "T1, PBP4, native, purified (Escherichia coli, UniProt P24228 21-477, where used as the labelled protein in MST: NT647 RED-NHS dye on amines)", "T1 chain": "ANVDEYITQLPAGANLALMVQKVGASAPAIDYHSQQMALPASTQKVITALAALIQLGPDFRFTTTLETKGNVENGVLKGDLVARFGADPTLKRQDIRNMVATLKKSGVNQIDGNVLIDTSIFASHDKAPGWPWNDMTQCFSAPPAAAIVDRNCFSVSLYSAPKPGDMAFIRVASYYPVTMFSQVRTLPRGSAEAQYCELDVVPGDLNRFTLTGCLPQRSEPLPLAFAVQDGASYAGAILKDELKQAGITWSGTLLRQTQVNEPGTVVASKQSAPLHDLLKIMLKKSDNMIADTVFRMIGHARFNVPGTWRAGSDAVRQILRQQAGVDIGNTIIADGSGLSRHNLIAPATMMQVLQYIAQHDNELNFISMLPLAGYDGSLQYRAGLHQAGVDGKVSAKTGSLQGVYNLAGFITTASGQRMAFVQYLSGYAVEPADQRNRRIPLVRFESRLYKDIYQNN"}, "PBP1A, purified": {"molecular_target": "T2, PBP1A, purified (Escherichia coli, UniProt P02918 1-850, NT647 RED-NHS dye on amines (PBP1A was the labelled protein in all MST assays))", "T2 chain": "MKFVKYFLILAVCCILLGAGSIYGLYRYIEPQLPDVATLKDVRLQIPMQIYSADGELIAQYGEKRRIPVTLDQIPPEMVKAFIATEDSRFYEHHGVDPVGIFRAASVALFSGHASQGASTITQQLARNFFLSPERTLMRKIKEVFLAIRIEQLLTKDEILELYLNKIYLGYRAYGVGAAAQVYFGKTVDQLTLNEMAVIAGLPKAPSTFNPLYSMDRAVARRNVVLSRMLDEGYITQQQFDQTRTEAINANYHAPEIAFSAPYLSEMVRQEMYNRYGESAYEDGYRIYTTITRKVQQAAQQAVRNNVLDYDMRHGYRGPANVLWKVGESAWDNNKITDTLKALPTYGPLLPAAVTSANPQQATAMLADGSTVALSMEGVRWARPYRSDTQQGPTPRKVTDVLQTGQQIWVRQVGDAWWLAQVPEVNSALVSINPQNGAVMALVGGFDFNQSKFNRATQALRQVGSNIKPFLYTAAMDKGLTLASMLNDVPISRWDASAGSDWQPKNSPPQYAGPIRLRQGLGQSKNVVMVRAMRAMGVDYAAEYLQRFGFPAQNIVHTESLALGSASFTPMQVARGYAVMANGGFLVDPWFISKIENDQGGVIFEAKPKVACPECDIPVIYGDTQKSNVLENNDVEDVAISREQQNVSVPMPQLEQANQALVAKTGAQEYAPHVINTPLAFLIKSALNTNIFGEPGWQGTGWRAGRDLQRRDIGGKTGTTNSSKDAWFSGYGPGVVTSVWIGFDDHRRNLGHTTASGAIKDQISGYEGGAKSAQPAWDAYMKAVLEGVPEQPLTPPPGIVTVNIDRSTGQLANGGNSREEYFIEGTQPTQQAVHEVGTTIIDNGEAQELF"}},
  "data": [
    {"binder": "MepM (enzyme) YHRDATPIVKTIELEQNEIRSLLPEASEPIDQAAQEDEAIPQDELDDKIAGEAGVHEYVVSTGDTLSSILNQYGIDMGDITQLAAADKELRNLKIGQQLSWTLTADGELQRLTWEVSRRETRTYDRTAANGFKMTSEMQQGEWVNNLLKGTVGGSFVASARNAGLTSAEVSAVIKAMQWQMDFRKLKKGDEFAVLMSREMLDGKREQSQLLGVRLRSEGKDYYAIRAEDGKFYDRNGTGLAKGFLRFPTAKQFRISSNFNPRRTNPVTGRVAPHRGVDFAMPQGTPVLSVGDGEVVVAKRSGAAGYYVAIRHGRSYTTRYMHLRKILVKPGQKVKRGDRIALSGNTGRSTGPHLHYEVWINQQAVNPLTAKLPRTEGLTGSDRREFLAQAKEIVPQLRFD", "values": [
      {"measurement": "Kd", "setting": "MepS", "value": 1180, "unit": "nM"}
    ]},
    {"binder": "PBP7, purified (enzyme, where used as the labelled protein in MST: NT647 RED-NHS dye on amines) KTAAATTASQPEIASGSAMIVDLNTNKVIYSNHPDLVRPIASISKLMTAMVVLDARLPLDEKLKVDISQTPEMKGVYSRVRLNSEISRKDMLLLALMSSENRAAASLAHHYPGGYKAFIKAMNAKAKSLGMNNTRFVEPTGLSVHNVSTARDLTKLLIASKQYPLIGQLSTTREDMATFSNPTYTLPFRNTNHLVYRDNWNIQLTKTGFTNAAGHCLVMRTVINNKPVALVVMDAFGKYTHFADASRLRTWIETGKVMPVPAAALSYKKQKAAQMAAAGQTAQND", "values": [
      {"measurement": "Kd", "setting": "PBP4, native, purified", "value": 332, "unit": "nM"}
    ]},
    {"binder": "B1", "values": [
      {"measurement": "Kd", "setting": "PBP1A, purified", "value": 91, "unit": "nM"}
    ]}
  ]
}
